Data published in patent publication US7867500B2, “Cofactor that modulates steroid receptor activities” (The United States of America as represented by the …, priority 2004, dated 2011).

Biological target: T1, GR (Rattus norvegicus, UniProt P06536)
T1 construct: expressed in transfected cells; host or cells: Cos-7
T1 sequence (P06536 1-795): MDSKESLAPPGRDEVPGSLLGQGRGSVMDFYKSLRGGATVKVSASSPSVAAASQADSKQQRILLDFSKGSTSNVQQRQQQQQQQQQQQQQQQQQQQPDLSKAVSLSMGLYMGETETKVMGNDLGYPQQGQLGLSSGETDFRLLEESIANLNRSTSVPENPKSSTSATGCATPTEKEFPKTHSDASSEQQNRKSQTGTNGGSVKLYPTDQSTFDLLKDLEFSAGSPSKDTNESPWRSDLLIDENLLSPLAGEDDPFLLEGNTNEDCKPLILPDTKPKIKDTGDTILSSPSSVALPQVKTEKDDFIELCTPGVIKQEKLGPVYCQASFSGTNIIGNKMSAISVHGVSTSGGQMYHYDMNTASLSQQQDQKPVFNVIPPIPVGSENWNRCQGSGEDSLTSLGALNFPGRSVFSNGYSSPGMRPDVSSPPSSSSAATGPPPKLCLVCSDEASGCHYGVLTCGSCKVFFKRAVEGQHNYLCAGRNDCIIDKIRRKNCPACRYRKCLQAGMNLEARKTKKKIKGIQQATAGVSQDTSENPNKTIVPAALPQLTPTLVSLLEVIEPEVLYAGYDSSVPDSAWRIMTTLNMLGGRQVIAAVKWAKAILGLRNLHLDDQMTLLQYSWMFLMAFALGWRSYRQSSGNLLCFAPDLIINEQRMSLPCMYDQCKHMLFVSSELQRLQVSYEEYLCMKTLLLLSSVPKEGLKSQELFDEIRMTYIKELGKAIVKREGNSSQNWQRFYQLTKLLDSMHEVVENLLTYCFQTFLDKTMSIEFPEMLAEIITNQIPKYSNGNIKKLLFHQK
T1 sequence (Q6EMB2 5-1281 A149V/F1267S partner limits assumed): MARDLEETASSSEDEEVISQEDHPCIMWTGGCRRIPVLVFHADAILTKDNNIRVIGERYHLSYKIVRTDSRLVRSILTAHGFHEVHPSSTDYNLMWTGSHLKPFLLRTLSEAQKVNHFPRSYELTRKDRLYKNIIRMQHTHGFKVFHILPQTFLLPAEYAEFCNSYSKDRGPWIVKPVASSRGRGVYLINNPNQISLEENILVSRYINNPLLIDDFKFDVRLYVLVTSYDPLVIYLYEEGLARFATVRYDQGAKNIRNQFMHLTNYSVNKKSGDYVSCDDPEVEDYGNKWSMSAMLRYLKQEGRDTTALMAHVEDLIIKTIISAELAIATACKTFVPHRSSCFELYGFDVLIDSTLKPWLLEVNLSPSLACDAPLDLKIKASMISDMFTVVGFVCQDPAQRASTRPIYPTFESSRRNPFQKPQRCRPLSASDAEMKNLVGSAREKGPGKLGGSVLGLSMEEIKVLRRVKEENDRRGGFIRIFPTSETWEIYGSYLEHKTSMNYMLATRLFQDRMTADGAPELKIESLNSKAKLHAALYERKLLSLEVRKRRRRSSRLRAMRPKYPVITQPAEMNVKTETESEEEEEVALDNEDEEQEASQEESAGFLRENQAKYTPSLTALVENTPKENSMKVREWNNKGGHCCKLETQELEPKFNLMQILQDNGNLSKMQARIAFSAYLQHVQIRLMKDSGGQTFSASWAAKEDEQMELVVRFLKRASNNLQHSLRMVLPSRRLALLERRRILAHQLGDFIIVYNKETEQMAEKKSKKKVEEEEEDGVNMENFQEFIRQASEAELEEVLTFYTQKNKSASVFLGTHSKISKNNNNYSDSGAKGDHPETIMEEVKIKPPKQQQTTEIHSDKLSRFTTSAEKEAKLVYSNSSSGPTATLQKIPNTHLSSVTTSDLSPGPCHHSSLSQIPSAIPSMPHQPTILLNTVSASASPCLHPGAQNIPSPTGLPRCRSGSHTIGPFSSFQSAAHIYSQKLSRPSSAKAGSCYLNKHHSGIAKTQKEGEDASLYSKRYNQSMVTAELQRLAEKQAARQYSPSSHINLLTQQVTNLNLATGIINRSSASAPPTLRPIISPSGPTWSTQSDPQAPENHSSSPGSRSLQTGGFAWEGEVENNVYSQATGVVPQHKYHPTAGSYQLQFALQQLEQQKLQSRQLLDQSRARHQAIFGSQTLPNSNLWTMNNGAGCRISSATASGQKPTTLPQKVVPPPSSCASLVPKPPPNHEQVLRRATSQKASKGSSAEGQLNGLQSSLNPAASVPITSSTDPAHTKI
Assay: Whole cell co-immunoprecipitation in Cos-7 cells: GR
Format: binding
Conditions: EtOH ± 1 μM Dex, 2 hr
Method: FIG. 7C1-3 illustrate whole cell co-immunoprecipitation of STAMP, GR, and TIF2/GRIP1. Cos-7 cells that had been co-transfected with Flag/STAMP (or Flag itself), HA/GRIP1, and GR plasmids (10 μg of each/150 mm dish) for 48 hr were treated for 2 hr with EtOH±1 μM Dex before being lysed as described in Example 1. Lysate was either analyzed on SDS-PAGE gels or treated with anti-Flag antibody to immunoprecipitate Flag/STAMP. The pellets were separated on SDS-PAGE gels and Western blotted with anti-Flag (FIG. 7C1), anti-HA (FIG. 7C2), or anti-GR antibodies (FIG. 7C3). In each panel, lane 1=5.7% of input lysate, lane 2=IP pellet of Flag/STAMP, HA/GRIP1, and GR+EtOH, lane 3=IP pellet of Flag/STAMP, HA/GRIP1, and GR+Dex, and lane 4=control IP pellet of Flag, HA/GRIP1, and GR+EtOH. Similar results were obtained in a second experiment.
Immunoprecipitations were conducted as generally described in Wang et al. (2004) Mol. Endocrinol. 18: 1476-95, with slight modifications. The day before transfection, Cos-7 cells were seeded into 150 mm dishes at 200,000 cells per dish containing 20 ml of media. On the next day, about 30 μg of DNA/dish was transfected with 60 μl of FuGene reagent. […]

B1: STAMP: SRC-1 and TIF2 Associated Modulatory Protein, 1277 amino acid human polypeptide, expressed from transfected plasmid (protein)
chain: T1 sequence (Q6EMB2 5-1281 A149V/F1267S partner limits assumed)
  co-immunoprecipitation of GR with Flag-STAMP by anti-Flag antibody: co-immunoprecipitated
